Each block holds one binder with its values, some of them ahead of it.
Key:
human LILRB4 [1] = target: T1, human LILRB4 (human, UniProt Q8NHJ6 22-259, limits assumed); assay: ELISA; upper end of the range, tied to #216-1 by Table 1
T1 construct: also called leukocyte immunoglobulin-like receptor subfamily B member 4

human LILRB4 [2] = target: T1, human LILRB4; assay: ELISA; lower end of the range, tied to #214 by Table 1
human LILRB4 [3] = target: T1, human LILRB4; assay: ELISA

EC50 (human LILRB4 [1]): 0.3 nM
B1: anti-LILRB4 rabbit monoclonal antibody #216-1 (antibody, V domains shown)
VH: EQSVEESGGGLVKPGASLTLTCIASGFSFSSSYVMCWVRQAPGKGLELIACIHAGGSGSTYYASWAKGRFTISKTSSTTVTLQMTSLTAADTATYFCARYNYHFYYIGDYSDLWGPGTLVTVSS
VL: ELVMTQTPSSVSAAVGGTVTIKCQASEDIDSYLAWYQQKPGQRPKVLIYRASTLASGVPSRFKGSGSGTEFTLTISGLECDDAATYYCQQGWSNDVGSNAFGGGTKVEIK
notes: Rabbit monoclonal antibody

EC50 (human LILRB4 [2]): 0.05 nM
B2: anti-LILRB4 rabbit monoclonal antibody #214 (antibody, V domains shown)
VH: QSVKESGGRLVTPGTPLTLTCTVSGFSLSSYWMHWVRQAPGKGLEWVGVVSVSGNFYYATWAKGRFTISKTSTTVDLKITSPTIEDTAFYFCTMSFALWGQGTLVTISS
VL: ELVMTQTASPVSAAVGGTVTINCQSSQSVYSNNNLGWLKQKPGQPPKELIYYASTLASGVPSRFKGSGSGTQFTLTISDLECDDAATYYCVGGYGCSSADCSVFGGGTEVEIK
notes: Rabbit monoclonal antibody

EC50 (human LILRB4 [3]): 0.0808 nM
B3: anti-LILRB4 rabbit monoclonal antibody #78 (antibody, V domains shown)
VH: QSLQESGGRLVTPGTPLTLTCTVSGIDLSVYLMSWVRQSPGKGLEYIGFINSAGITAYATWAKGRFIISKTSTTVDLKVTSPTTEDTATYFCARNWIRLDLWGQGTLVTISS
VL: ELVLTQTPASVSAAVGGTVTISCQSSESIYKNYLSWFQQKPGQPPKLLIYETSKLASGVPSRFSGSGSGTQFTLTISDVQCDDAATYYCLGGYTNGRDTIFGGGTELEIK
notes: Rabbit monoclonal antibody; also called mAb 78; bin 1

— patent publication US20180086829A1 (published 2018)
